Data from article PMC10723402.
Substitutions are numbered along the chain they refer to. Read-outs that look alike come from different tables or passages of the source.

Legend:
Gsx2HD I234E = Gsx2HD I234E (Mus musculus, UniProt P31316 203-264, I234E); assay: ITC
Gsx2HD = Gsx2HD (Mus musculus, UniProt P31316 203-264); assay: ITC
Gsx2 167-305 [1] = molecular target: T1, Gsx2 167-305 (Mus musculus, UniProt P31316 167-305); assay: ITC
Gsx2HD L231E [2] = molecular target: T2, Gsx2HD L231E (Mus musculus, UniProt P31316 203-264, L231E); assay: EMSA
T2 sequence (P31316 203-264 L231E): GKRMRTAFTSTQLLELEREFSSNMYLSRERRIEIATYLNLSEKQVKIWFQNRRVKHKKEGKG

Gsx2HD L216E [3] = molecular target: T3, Gsx2HD L216E (Mus musculus, UniProt P31316 203-264, L216E); assay: EMSA
T3 sequence (P31316 203-264 L216E): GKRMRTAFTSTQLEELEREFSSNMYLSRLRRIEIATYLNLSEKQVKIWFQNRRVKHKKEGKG

Gsx2HD S212E [4] = molecular target: T4, Gsx2HD S212E (Mus musculus, UniProt P31316 203-264, S212E); assay: EMSA
T4 sequence (P31316 203-264 S212E): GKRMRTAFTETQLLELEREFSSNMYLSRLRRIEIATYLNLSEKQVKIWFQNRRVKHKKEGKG

Gsx2HD L231E [5] = molecular target: T2, Gsx2HD L231E; assay: EMSA; remark: listed apart in the source
Gsx2HD L216E [6] = molecular target: T3, Gsx2HD L216E; assay: EMSA; remark: listed apart in the source
Gsx2HD S212E [7] = molecular target: T4, Gsx2HD S212E; assay: EMSA; remark: listed apart in the source
Gsx2 167-305 [8] = molecular target: T1, Gsx2 167-305; assay: EMSA
Gsx2 167-305 [9] = molecular target: T1, Gsx2 167-305; assay: EMSA; remark: listed apart in the source

T1 sequence (P31316 167-305): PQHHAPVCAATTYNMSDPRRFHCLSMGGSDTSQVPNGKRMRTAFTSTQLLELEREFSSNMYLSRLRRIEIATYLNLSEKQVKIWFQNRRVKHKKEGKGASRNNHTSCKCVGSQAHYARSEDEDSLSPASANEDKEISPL
Sequence of Gsx2HD I234E (P31316 203-264 I234E): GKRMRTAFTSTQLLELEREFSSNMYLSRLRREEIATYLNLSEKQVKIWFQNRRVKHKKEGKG
Sequence of Gsx2HD (P31316 203-264): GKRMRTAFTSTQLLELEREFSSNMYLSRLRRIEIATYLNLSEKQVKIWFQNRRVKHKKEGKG

B1: TAATTA consensus monomer site 15mer (dsDNA)
DNA 1: TGAGCTAATTAAAGC
DNA 2: AGCTTTAATTAGCTC
Kd (Gsx2HD I234E): 20 nM

B2: TAATGG (common Q50) monomer site 15mer (dsDNA)
DNA 1: TGAGCTAATGGAAGC
DNA 2: AGCTTCCATTAGCTC
Kd (Gsx2HD): 36 nM
Kd (Gsx2 167-305 [1]): 143 nM

B3: 8bpS dimer probe (dsDNA)
DNA 1: TCCAACTAATTAAAGATTTAATTCGTAGTGCGGGCGTGGCT
DNA 2: CGAATTAAATCTTTAATTAGTTGGA
DNA 3: AGCCACGCCCGCACTA
binding result (Gsx2HD L231E [2]): binds
binding result (Gsx2HD L216E [3]): binds
binding result (Gsx2HD S212E [4]): binds

B4: 7bpS dimer probe (= AAATT spacer probe) (dsDNA)
DNA 1: TCCAACTAATTAAAATTTAATTCGTAGTGCGGGCGTGGCT
DNA 2: CGAATTAAATTTTAATTAGTTGGA
DNA 3: AGCCACGCCCGCACTA
binding result (Gsx2HD L231E [5]): binds
binding result (Gsx2HD L216E [6]): binds
binding result (Gsx2HD S212E [7]): binds

B5: GGGCC spacer dimer probe (dsDNA)
DNA 1: B4 DNA 1 with A13G, A14G, A15G, T16C, T17C
DNA 2: CGAATTAGGCCCTAATTAGTTGGA
DNA 3: AGCCACGCCCGCACTA
binding result (Gsx2 167-305 [8]): binds

B6: AATTT spacer dimer probe (dsDNA)
DNA 1: B4 DNA 1 with A15T
DNA 2: CGAATTAAAATTTAATTAGTTGGA
DNA 3: AGCCACGCCCGCACTA
binding result (Gsx2 167-305 [9]): binds

B7: GCCGG spacer dimer probe (dsDNA)
DNA 1: B4 DNA 1 with A13G, A14C, A15C, T16G, T17G
DNA 2: CGAATTACCGGCTAATTAGTTGGA
DNA 3: AGCCACGCCCGCACTA
binding result (Gsx2 167-305 [8]): binds

B8: GCGGG spacer dimer probe (dsDNA)
DNA 1: B4 DNA 1 with A13G, A14C, A15G, T16G, T17G
DNA 2: CGAATTACCCGCTAATTAGTTGGA
DNA 3: AGCCACGCCCGCACTA
binding result (Gsx2 167-305 [8]): binds

B9: ATATT spacer dimer probe (dsDNA)
DNA 1: B4 DNA 1 with A14T
DNA 2: CGAATTAAATATTAATTAGTTGGA
DNA 3: AGCCACGCCCGCACTA
binding result (Gsx2 167-305 [9]): binds
